B1: L88AL92A: mutated TriA (SEQ ID NO: 2) in which position 88 is Ala and position 92 is Ala (protein)
chain: MQTLSIQHGTLVTMDQYRRVLGDSWVHVQDGRIVALGVHAESVPPPADRVIDARGKVVLPGFINAHTHVNQILLRGGPSHGRQLYDWAFNVAYPGQKAMRPEDVAVAVRLYCAEAVRSGITTINDNADSAIYPGNIEAAMAVYGEVGVRVVYARMFFDRMDGRIQGYVDALKARSPQVELCSIMEETAVAKDRITALSDQYHGTAGGRISVWPAPAITPAVTVEGMRWAQAFARDRAVMWTLHMAESDHDERLHWMSPAEYMECYGLLDERLQVAHCVYFDRKDVRLLHRHNVKVASQVVSNAYLGSGVAPVPEMVERGMAVGIGTDDGNCNDSVNMIGDMKFMAHIHRAVHRDADVLTPEKILEMATIDGARSLGMDHEIGSIETGKRADLILLDLRHPQTTPHHHLAATIVFQAYGNEVDTVLIDGNVVMENRRLSFLPPERELAFLEEAQSRATAILQRANMVANPAWRSL
modifications: Pseudomonas
B2: D128I: mutated TriA (SEQ ID NO: 2) in which position 128 is Ile (protein)
chain: MQTLSIQHGTLVTMDQYRRVLGDSWVHVQDGRIVALGVHAESVPPPADRVIDARGKVVLPGFINAHTHVNQILLRGGPSHGRQLYDWLFNVLYPGQKAMRPEDVAVAVRLYCAEAVRSGITTINDNAISAIYPGNIEAAMAVYGEVGVRVVYARMFFDRMDGRIQGYVDALKARSPQVELCSIMEETAVAKDRITALSDQYHGTAGGRISVWPAPAITPAVTVEGMRWAQAFARDRAVMWTLHMAESDHDERLHWMSPAEYMECYGLLDERLQVAHCVYFDRKDVRLLHRHNVKVASQVVSNAYLGSGVAPVPEMVERGMAVGIGTDDGNCNDSVNMIGDMKFMAHIHRAVHRDADVLTPEKILEMATIDGARSLGMDHEIGSIETGKRADLILLDLRHPQTTPHHHLAATIVFQAYGNEVDTVLIDGNVVMENRRLSFLPPERELAFLEEAQSRATAILQRANMVANPAWRSL
modifications: Pseudomonas
B3: N70A: mutated TriA (SEQ ID NO: 2) in which position 70 is Ala (protein)
chain: MQTLSIQHGTLVTMDQYRRVLGDSWVHVQDGRIVALGVHAESVPPPADRVIDARGKVVLPGFINAHTHVAQILLRGGPSHGRQLYDWLFNVLYPGQKAMRPEDVAVAVRLYCAEAVRSGITTINDNADSAIYPGNIEAAMAVYGEVGVRVVYARMFFDRMDGRIQGYVDALKARSPQVELCSIMEETAVAKDRITALSDQYHGTAGGRISVWPAPAITPAVTVEGMRWAQAFARDRAVMWTLHMAESDHDERLHWMSPAEYMECYGLLDERLQVAHCVYFDRKDVRLLHRHNVKVASQVVSNAYLGSGVAPVPEMVERGMAVGIGTDDGNCNDSVNMIGDMKFMAHIHRAVHRDADVLTPEKILEMATIDGARSLGMDHEIGSIETGKRADLILLDLRHPQTTPHHHLAATIVFQAYGNEVDTVLIDGNVVMENRRLSFLPPERELAFLEEAQSRATAILQRANMVANPAWRSL
modifications: Pseudomonas
B4: N70N: TriA (melamine deaminase, SEQ ID NO: 2) with position 70 unchanged, apparently the wildtype reference (protein)
chain: MQTLSIQHGTLVTMDQYRRVLGDSWVHVQDGRIVALGVHAESVPPPADRVIDARGKVVLPGFINAHTHVNQILLRGGPSHGRQLYDWLFNVLYPGQKAMRPEDVAVAVRLYCAEAVRSGITTINDNADSAIYPGNIEAAMAVYGEVGVRVVYARMFFDRMDGRIQGYVDALKARSPQVELCSIMEETAVAKDRITALSDQYHGTAGGRISVWPAPAITPAVTVEGMRWAQAFARDRAVMWTLHMAESDHDERLHWMSPAEYMECYGLLDERLQVAHCVYFDRKDVRLLHRHNVKVASQVVSNAYLGSGVAPVPEMVERGMAVGIGTDDGNCNDSVNMIGDMKFMAHIHRAVHRDADVLTPEKILEMATIDGARSLGMDHEIGSIETGKRADLILLDLRHPQTTPHHHLAATIVFQAYGNEVDTVLIDGNVVMENRRLSFLPPERELAFLEEAQSRATAILQRANMVANPAWRSL
modifications: Pseudomonas
B5: M155V: mutated TriA (SEQ ID NO: 2) in which position 155 is Val (protein)
chain: MQTLSIQHGTLVTMDQYRRVLGDSWVHVQDGRIVALGVHAESVPPPADRVIDARGKVVLPGFINAHTHVNQILLRGGPSHGRQLYDWLFNVLYPGQKAMRPEDVAVAVRLYCAEAVRSGITTINDNADSAIYPGNIEAAMAVYGEVGVRVVYARVFFDRMDGRIQGYVDALKARSPQVELCSIMEETAVAKDRITALSDQYHGTAGGRISVWPAPAITPAVTVEGMRWAQAFARDRAVMWTLHMAESDHDERLHWMSPAEYMECYGLLDERLQVAHCVYFDRKDVRLLHRHNVKVASQVVSNAYLGSGVAPVPEMVERGMAVGIGTDDGNCNDSVNMIGDMKFMAHIHRAVHRDADVLTPEKILEMATIDGARSLGMDHEIGSIETGKRADLILLDLRHPQTTPHHHLAATIVFQAYGNEVDTVLIDGNVVMENRRLSFLPPERELAFLEEAQSRATAILQRANMVANPAWRSL
modifications: Pseudomonas
B6: L92V: mutated TriA (SEQ ID NO: 2) in which position 92 is Val (protein)
chain: MQTLSIQHGTLVTMDQYRRVLGDSWVHVQDGRIVALGVHAESVPPPADRVIDARGKVVLPGFINAHTHVNQILLRGGPSHGRQLYDWLFNVVYPGQKAMRPEDVAVAVRLYCAEAVRSGITTINDNADSAIYPGNIEAAMAVYGEVGVRVVYARMFFDRMDGRIQGYVDALKARSPQVELCSIMEETAVAKDRITALSDQYHGTAGGRISVWPAPAITPAVTVEGMRWAQAFARDRAVMWTLHMAESDHDERLHWMSPAEYMECYGLLDERLQVAHCVYFDRKDVRLLHRHNVKVASQVVSNAYLGSGVAPVPEMVERGMAVGIGTDDGNCNDSVNMIGDMKFMAHIHRAVHRDADVLTPEKILEMATIDGARSLGMDHEIGSIETGKRADLILLDLRHPQTTPHHHLAATIVFQAYGNEVDTVLIDGNVVMENRRLSFLPPERELAFLEEAQSRATAILQRANMVANPAWRSL
modifications: Pseudomonas

System: Soybean cv Jake
Experiment: Herbicide tolerance test of transgenic soybean events, roots of cuttings treated via nutrient solution with the herbicide
Assay type: in vivo
Details: transgenic plants expressing the TriA variant, herbicide treatment; 0% no injury, 100% complete death; herbicide and species not given
Method: Binary vectors are generated as described in EXAMPLE 9. Soybean cv Jake are transformed as previously described by Siminszky et al., Phytochem Rev. 5:445-458 (2006). After regeneration, transformants are transplanted to soil in small pots, placed in growth chambers (16 hr day/8 hr night; 25° C. day/23° C. night; 65% relative humidity; 130-150 microE m-2 s-1) and subsequently tested for the presence of the T-DNA via Taqman analysis. After a few weeks, healthy, transgenic positive, single copy events are transplanted to larger pots and allowed to grow in the growth chamber. An optimal shoot for cutting is about 3-4 inches tall, with at least two nodes present. Each cutting is taken from the original transformant (mother plant) and dipped into rooting hormone powder (indole-3-butyric acid, IBA). The cutting is then placed in oasis wedges inside a bio-dome. The mother plant is taken to maturity in the greenhouse and harvested for seed. Wild type cuttings are also taken simultaneously to serve as negative controls. The cuttings are kept in the bio-dome for 5-7 days. 7-10 days after transfer to oasis wedges, the roots are treated via nutrient solution with the herbicide. Typical phytotox symptoms, like club shaped root, are evaluated 3-4 days after treatment. Less or no injury of transgenic plants compared to wildtype plants are interpreted as herbicide tolerance.

Molecule | Root injury [%]
B1 | 0%
B2 | 0%
B3 | 0%
B4 | 80%
B5 | 10%
B6 | 50%

From patent US10538782B2, “Plants having increased tolerance to herbicides” (BASF SE, priority 2015, dated 2020)
